According to publication PMC10528418 (Molecular cell, 2023):

Experiments:
Experiment in all cases: cryo-EM structure
TFIIIC subunit τ138 = biological target: T1, TFIIIC subunit τ138 (S. cerevisiae, UniProt P34111 1-1160)
T1 sequence (looked up): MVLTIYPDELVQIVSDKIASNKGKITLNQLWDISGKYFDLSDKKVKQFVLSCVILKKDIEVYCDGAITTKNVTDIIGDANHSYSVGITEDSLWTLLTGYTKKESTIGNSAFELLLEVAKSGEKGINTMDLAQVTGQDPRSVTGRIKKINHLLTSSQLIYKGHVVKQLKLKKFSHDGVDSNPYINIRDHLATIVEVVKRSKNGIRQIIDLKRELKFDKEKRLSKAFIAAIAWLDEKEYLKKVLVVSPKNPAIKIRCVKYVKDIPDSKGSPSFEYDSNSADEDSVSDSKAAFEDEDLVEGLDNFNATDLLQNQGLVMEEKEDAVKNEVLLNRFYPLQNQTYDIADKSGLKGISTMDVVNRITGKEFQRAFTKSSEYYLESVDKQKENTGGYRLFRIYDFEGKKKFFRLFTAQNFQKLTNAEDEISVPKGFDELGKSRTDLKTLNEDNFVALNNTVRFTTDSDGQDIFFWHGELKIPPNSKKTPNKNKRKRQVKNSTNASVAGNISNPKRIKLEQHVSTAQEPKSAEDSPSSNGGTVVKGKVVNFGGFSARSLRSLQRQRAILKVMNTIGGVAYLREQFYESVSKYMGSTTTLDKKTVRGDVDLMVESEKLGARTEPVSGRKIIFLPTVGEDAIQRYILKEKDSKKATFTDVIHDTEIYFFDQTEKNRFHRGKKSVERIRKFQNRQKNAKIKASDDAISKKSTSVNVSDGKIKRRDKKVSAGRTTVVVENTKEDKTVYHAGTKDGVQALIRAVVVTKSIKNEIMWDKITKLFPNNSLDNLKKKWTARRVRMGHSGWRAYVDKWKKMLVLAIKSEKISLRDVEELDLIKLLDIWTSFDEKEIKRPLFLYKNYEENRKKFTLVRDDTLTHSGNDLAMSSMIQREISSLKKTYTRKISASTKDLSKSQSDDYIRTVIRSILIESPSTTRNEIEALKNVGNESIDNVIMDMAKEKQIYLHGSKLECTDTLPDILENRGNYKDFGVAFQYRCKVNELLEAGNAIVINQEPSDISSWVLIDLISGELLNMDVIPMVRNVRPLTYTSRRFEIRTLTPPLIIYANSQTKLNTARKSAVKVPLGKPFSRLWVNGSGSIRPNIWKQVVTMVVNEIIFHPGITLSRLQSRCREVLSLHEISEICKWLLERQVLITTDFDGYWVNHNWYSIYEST

TFIIIC subunit τ91 = biological target: T2, TFIIIC subunit τ91 (S. cerevisiae, UniProt Q06339 1-672)
T2 sequence (looked up): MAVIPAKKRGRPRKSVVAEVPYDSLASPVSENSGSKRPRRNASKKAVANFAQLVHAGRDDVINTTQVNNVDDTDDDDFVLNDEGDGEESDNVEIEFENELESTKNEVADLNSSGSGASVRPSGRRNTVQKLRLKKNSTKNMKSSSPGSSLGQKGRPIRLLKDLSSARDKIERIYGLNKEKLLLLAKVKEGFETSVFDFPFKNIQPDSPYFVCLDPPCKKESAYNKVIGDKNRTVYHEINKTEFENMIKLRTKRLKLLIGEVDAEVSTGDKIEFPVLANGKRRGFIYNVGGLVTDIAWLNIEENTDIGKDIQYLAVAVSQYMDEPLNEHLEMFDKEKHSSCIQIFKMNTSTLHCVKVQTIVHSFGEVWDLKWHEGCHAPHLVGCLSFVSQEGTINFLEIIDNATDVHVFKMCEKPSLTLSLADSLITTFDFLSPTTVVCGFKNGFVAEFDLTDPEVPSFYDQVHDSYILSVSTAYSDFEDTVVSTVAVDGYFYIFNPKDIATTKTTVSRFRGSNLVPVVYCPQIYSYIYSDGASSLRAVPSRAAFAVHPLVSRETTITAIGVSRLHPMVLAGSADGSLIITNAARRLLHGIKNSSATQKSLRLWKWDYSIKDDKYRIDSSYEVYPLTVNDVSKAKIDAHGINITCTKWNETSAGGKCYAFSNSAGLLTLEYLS

TFIIIC subunit τ95 = biological target: T3, TFIIIC subunit τ95 (S. cerevisiae, UniProt P32367 1-649)
T3 sequence (looked up): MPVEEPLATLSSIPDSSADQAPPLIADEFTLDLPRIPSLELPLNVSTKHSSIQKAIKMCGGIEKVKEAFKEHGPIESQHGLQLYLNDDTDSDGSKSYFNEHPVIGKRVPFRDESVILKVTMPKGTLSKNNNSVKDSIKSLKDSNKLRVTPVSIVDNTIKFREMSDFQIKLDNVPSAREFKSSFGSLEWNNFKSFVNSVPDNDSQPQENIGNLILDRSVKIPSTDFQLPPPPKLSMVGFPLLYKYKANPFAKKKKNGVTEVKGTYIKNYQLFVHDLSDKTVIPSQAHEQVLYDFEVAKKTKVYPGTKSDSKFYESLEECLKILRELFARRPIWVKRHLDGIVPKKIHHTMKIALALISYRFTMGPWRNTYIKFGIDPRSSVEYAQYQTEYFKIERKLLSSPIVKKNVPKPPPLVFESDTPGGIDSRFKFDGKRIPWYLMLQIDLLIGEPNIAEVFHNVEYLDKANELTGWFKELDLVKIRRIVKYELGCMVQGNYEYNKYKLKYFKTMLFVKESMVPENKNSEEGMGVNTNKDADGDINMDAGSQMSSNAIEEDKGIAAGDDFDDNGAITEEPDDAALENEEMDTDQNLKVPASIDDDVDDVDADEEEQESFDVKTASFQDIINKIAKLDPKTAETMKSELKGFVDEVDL

B1: TFIIIC subunit τ60 (natural protein, S. cerevisiae)
chain: MKLLKDLLVDRKEFEDWKNNLTWARDGTLYLTTFPDISIGQPKYAKDINCNSKNLFHVKEFPLEFENKLDFELAQQNGLLNSQPVCYPRVCKPSPIDDWMAVLSNNGNVSVFKDNKMLTNLDSKGNLSSRTYHCFEWNPIESSIVVGNEDGELQFFSIRKNSENTPEFYFESSIRLSDAGSKDWVTHIVWYEDVLVAALSNNSVFSMTVSASSHQPVSRMIQNASRRKITDLKIVDYKVVLTCPGYVHKIDLKNYSISSLKTGSLENFHIIPLNHEKESTILLMSNKTSYKVLLEDELHVTADNIIAPYLEKKFKKWSTIWNEFNNYETTLVIHGISLSPDGYSIAIVYDMERVAFKYKIASEQSFNIMFAPLYHTWTISERAVGLAWYQTYQIYNQSLPKLPENFSMNKKLLNGNYPISLDFQSYLNALMKSEEMRIIMFLNMTIDKPSILSFLEALYEYAINKKSELTNSFDLACVLSIAAILKREAPIYNGTLLMKNSFLEETFNLESFTADPETVTSTTNNTWKRCGVTLLPILTTHVKICPVSKQRVIDIKRDDLNDYGWFTRGLLERFNEISVYCGTTLEVM
- binding result (TFIIIC subunit τ138): binds
- binding result (TFIIIC subunit τ91): binds

B2: TFIIIC subunit τ55 (natural protein, S. cerevisiae, UniProt Q12415 1-435, looked up)
chain: MVVNTIYIARHGYRSNWLPEGPYPDPLTGIDSDVPLAEHGVQQAKELAHYLLSLDNQPEAAFASPFYRCLETVQPIAKLLEIPVYLERGIGEWYRPDRKPVIPVPAGYEILSKFFPGVISQEWDSTLTPNEKGETEQEMYMRFKKFWPLFIERVEKEYPNVECILLVTHAASKIALGMSLLGYDNPRMSLNENGDKIRSGSCSLDKYEILKKSYDTIDETDDQTSFTYIPFSDRKWVLTMNGNTEFLSSGEEMNWNFDCVAEAGSDADIKKRQMTKKTSSPIPEADDQTEVETVYISVDIPSGNYKERTEIAKSAILQYSGLETDAPLFRIGNRLYEGSWERLVGTELAFPNAAHVHKKTAGLLSPTEENETTNAGQSKGSSTANDPNIQIQEEDVGLPDSTNTSRDHTGDKEEVQSEKIYRIKERIVLSNVRPM
- binding result (TFIIIC subunit τ95): binds
- binding result (TFIIIC subunit τ138): binds
